Reference: US20240262894A1

Assays:
[1] = target: post-fusion F protein (FΔFP) of RSV A2 strain (respiratory syncytial virus A2 strain) (UniProt P03420); test: SPR (Biacore), F protein immobilised on CM5 chip, Fab as analyte
[2] = target: pre-fusion F protein DS-Cav1 of RSV A2 strain (respiratory syncytial virus A2 strain); test: as above
[3] = target: F protein of RSV B-type clinical isolates (on virus) (respiratory syncytial virus B-type clinical isolates); test: cell-based or functional assay

## Palivizumab Fab
[1]
  Kd: 4.4 nM
[2]
  Kd: 11.4 nM

## Palivizumab (antibody)
[3]
  IC50 (ng/mL), neutralization of RSV B-type clinical isolates on Hep2 cells, flow cytometry: 1410 ng/mL
